US20190262387A1
No end group written: not given here.

Assays:
[1] = target: collagen II (thin coating on polystyrene tissue culture plate); assay: normalized fluorescence of PEG-fluorescein conjugated peptide on collagen II coated plate after washing; reference is scrambled collagen II binding peptide (FIG. 2I)
[2] = target: collagen I (thin coating on polystyrene tissue culture plate); assay: normalized fluorescence of PEG-fluorescein conjugated peptide on collagen I coated plate after washing; reference is scrambled collagen I binding peptide (FIG. 2D)

Row | normalized fluorescence intensity relative to scrambled peptide (times that of scrambled peptide) [1] | normalized fluorescence intensity relative to scrambled peptide (times that of scrambled peptide) [2] | Binder
1 | 1.65 |  | WYRGRL (also: conjugated to PEG-fluorescein, site not given here) [collagen II binding peptide conjugated to PEG-fluorescein]
2 |  | 1.55 | YSFYSDESLQ (also: conjugated to PEG-fluorescein, site not given here) [collagen I binding peptide conjugated to PEG-fluorescein]
